Assay results as given in paper PMC5313200.

Molecular target: mitochondrial antiviral signaling protein (MAVS), from pCMV-FLAG-MAVS (UniProt Q8VCF0)
Assay: co-immunoprecipitation with quantitative western blot
Conditions: 293T cells co-transfected with MAVS and viperin mutant; at least 3 independent experiments; parent: est. 100; read off a plot

Compared with “viperin (Virus Inhibitory Protein, Endoplasmic Reticulum-associated, interferon-inducible), wild type, from pcDNA3.1-viperin (from UniProt Q8CBB9) C84A”, “viperin (Virus Inhibitory Protein, Endoplasmic Reticulum-associated, interferon-inducible), wild type, from pcDNA3.1-viperin (from UniProt Q8CBB9) F90A” is higher in percent of parent: 93 % WT for the first, 160 % WT for the second.

Going from “viperin (Virus Inhibitory Protein, Endoplasmic Reticulum-associated, interferon-inducible), wild type, from pcDNA3.1-viperin (from UniProt Q8CBB9) G117A” to “viperin (Virus Inhibitory Protein, Endoplasmic Reticulum-associated, interferon-inducible), wild type, from pcDNA3.1-viperin (from UniProt Q8CBB9) H79A”, the percent of parent rises from 20 % WT to 140 % WT.

Compared with “viperin (Virus Inhibitory Protein, Endoplasmic Reticulum-associated, interferon-inducible), wild type, from pcDNA3.1-viperin (from UniProt Q8CBB9) H93A”, “viperin (Virus Inhibitory Protein, Endoplasmic Reticulum-associated, interferon-inducible), wild type, from pcDNA3.1-viperin (from UniProt Q8CBB9) K96A” is lower in percent of parent: 90 % WT for the first, 81 % WT for the second.

Going from “viperin (Virus Inhibitory Protein, Endoplasmic Reticulum-associated, interferon-inducible), wild type, from pcDNA3.1-viperin (from UniProt Q8CBB9) K120A” to “viperin (Virus Inhibitory Protein, Endoplasmic Reticulum-associated, interferon-inducible), wild type, from pcDNA3.1-viperin (from UniProt Q8CBB9) N77A”, the percent of parent rises from 12 % WT to 83 % WT.

Going from “viperin (Virus Inhibitory Protein, Endoplasmic Reticulum-associated, interferon-inducible), wild type, from pcDNA3.1-viperin (from UniProt Q8CBB9) N85A” to “viperin (Virus Inhibitory Protein, Endoplasmic Reticulum-associated, interferon-inducible), wild type, from pcDNA3.1-viperin (from UniProt Q8CBB9) P73A”, the percent of parent rises from 100 % WT to 220 % WT.

First: viperin (Virus Inhibitory Protein, Endoplasmic Reticulum-associated, interferon-inducible), wild type, from pcDNA3.1-viperin (from UniProt Q8CBB9) R82A
Second: viperin (Virus Inhibitory Protein, Endoplasmic Reticulum-associated, interferon-inducible), wild type, from pcDNA3.1-viperin (from UniProt Q8CBB9) S75A
The percent of parent of the first is higher: 66 % WT for the first, 57 % WT for the second.

Going from “viperin (Virus Inhibitory Protein, Endoplasmic Reticulum-associated, interferon-inducible), wild type, from pcDNA3.1-viperin (from UniProt Q8CBB9) T81A” to “viperin (Virus Inhibitory Protein, Endoplasmic Reticulum-associated, interferon-inducible), wild type, from pcDNA3.1-viperin (from UniProt Q8CBB9) T94A”, the percent of parent falls from 240 % WT to 30 % WT.

Compared with “viperin (Virus Inhibitory Protein, Endoplasmic Reticulum-associated, interferon-inducible), wild type, from pcDNA3.1-viperin (from UniProt Q8CBB9) T97A”, “viperin (Virus Inhibitory Protein, Endoplasmic Reticulum-associated, interferon-inducible), wild type, from pcDNA3.1-viperin (from UniProt Q8CBB9) Y86A” is higher in percent of parent: 45 % WT for the first, 120 % WT for the second.
